Results: US12084522B2, “Peptides, combination of peptides, and cell based medicaments for use in immunotherapy against urinary bladder cancer and other cancers” (Immatics Biotechnologies GmbH, priority 2016, dated 2024)

The substances below were run against HLA-A*02:01 (Homo sapiens, UniProt P04439, D140Y/D185E/D98H/E176V/E277Q/G131W/G231S/I119V/I121R/I166T/I218V/L300P/L318F/N151K/N90K/P208A/P217A/Q86G/Q94H/R138H/R169H/T345S) (assay: MHC binding assay (UV-ligand exchange, β2m ELISA, peptide exchange yield)). Details: binding to HLA-A*02:01 ranged by peptide exchange yield (UV-ligand exchange, β2m ELISA).
Excerpt: Candidate peptides for T cell based therapies according to the present invention were further tested for their MHC binding capacity (affinity). The individual peptide-MHC complexes were produced by UV-ligand exchange, where a UV-sensitive peptide is cleaved upon UV-irradiation, and exchanged with the peptide of interest as analyzed. Only peptide candidates that can effectively bind and stabilize the peptide-receptive MHC molecules prevent dissociation of the MHC complexes. To determine the yield of the exchange reaction, an ELISA was performed based on the detection of the light chain (β2 m) of stabilized MHC complexes. The assay was performed as generally described in Rodenko et al. (Rodenko et al., 2006).
96 well MAXISorp plates (NUNC) were coated over night with 2 μg/ml streptavidin in PBS at room temperature, washed 4× and blocked forth at 37° C. in 2% BSA containing blocking buffer. Refolded HLA-A*02:01/MLA-001 monomers served as standards, covering the range of 15-500 ng/ml. Peptide-MHC monomers of the UV-exchange reaction were diluted 100 fold in blocking buffer. Samples were incubated for 1 h at 37° C., washed four times, incubated with 2 ug/ml HRP conjugated anti-β2 m for 1 h at 37° C., washed again and detected with TMB solution that is stopped with […]. Absorption was measured at 450 nm. Candidate peptides that show a high exchange yield (preferably higher than 50%, most preferred higher than 75%) are generally preferred for a generation and production of antibodies or fragments thereof, and/or T cell receptors or fragments thereof, as they show sufficient avidity to the MHC molecules and prevent dissociation of the MHC complexes.
For “1 (ILLQASVQV; listed as Homo sapiens) [compound 1]”, the Peptide exchange was “++++ (>75% = ++++)”. “2 (GLLKAYSIRTA; listed as Homo sapiens) [compound 2]” was tested, and the Peptide exchange was “+++ (>50 = +++)”. For “3 (YLDEIPPKFSM; listed as Homo sapiens) [compound 3]”, the Peptide exchange was “++++ (>75% = ++++)”. With “7 (QMFEGQILDV; listed as Homo sapiens) [compound 7]” the Peptide exchange was “+++ (>50 = +++)”. In the case of “8 (ALSFSSSAGPGLLKA; listed as Homo sapiens) [compound 8]”, the Peptide exchange is reported as “+++ (>50 = +++)”. For “11 (AMAELRVVV; listed as Homo sapiens) [compound 11]”, the Peptide exchange was “++++ (>75% = ++++)”. With “12 (GVALTVTGV; listed as Homo sapiens) [compound 12]” the Peptide exchange was “++++ (>75% = ++++)”. “13 (FLEEKEQAAL; listed as Homo sapiens) [compound 13]” was tested, and the Peptide exchange was “+++ (>50 = +++)”. With “18 (SIAAYNPVV; listed as Homo sapiens) [compound 18]” the Peptide exchange was “++++ (>75% = ++++)”. With “19 (SLATTLTKI; listed as Homo sapiens) [compound 19]” the Peptide exchange was “+++ (>50 = +++)”. In the case of “20 (YLPDSLTQL; listed as Homo sapiens) [compound 20]”, the Peptide exchange is reported as “++++ (>75% = ++++)”. “21 (TLIEDDALNGA; listed as Homo sapiens) [compound 21]” was tested, and the Peptide exchange was “+++ (>50 = +++)”. In the case of “25 (SLDSSGFSL; listed as Homo sapiens) [compound 25]”, the Peptide exchange is reported as “+++ (>50 = +++)”. For “26 (GLALLYSGV; listed as Homo sapiens) [compound 26]”, the Peptide exchange was “++++ (>75% = ++++)”. For “28 (GLIDSLMAYV; listed as Homo sapiens) [compound 28]”, the Peptide exchange was “++++ (>75% = ++++)”. For “31 (SLFDGIATGL; listed as Homo sapiens) [compound 31]”, the Peptide exchange was “++++ (>75% = ++++)”. For “32 (YQAPDIDVQL; listed as Homo sapiens) [compound 32]”, the Peptide exchange was “+++ (>50 = +++)”. In the case of “33 (VLFGEITRL; listed as Homo sapiens) [compound 33]”, the Peptide exchange is reported as “+++ (>50 = +++)”. For “34 (ALLDEQQVNV; listed as Homo sapiens) [compound 34]”, the Peptide exchange was “+++ (>50 = +++)”. For “35 (KLPEPPPLA; listed as Homo sapiens) [compound 35]”, the Peptide exchange was “+++ (>50 = +++)”. For “36 (ALWDEFNQL; listed as Homo sapiens) [compound 36]”, the Peptide exchange was “+++ (>50 = +++)”. “37 (ILSAILVHL; listed as Homo sapiens) [compound 37]” was tested, and the Peptide exchange was “+++ (>50 = +++)”. For “38 (TLTSIIVAV; listed as Homo sapiens) [compound 38]”, the Peptide exchange was “+++ (>50 = +++)”. With “39 (AMASHLTST; listed as Homo sapiens) [compound 39]” the Peptide exchange was “+++ (>50 = +++)”. “40 (VIADRVVTV; listed as Homo sapiens) [compound 40]” was tested, and the Peptide exchange was “+++ (>50 = +++)”. With “42 (FLIDASQRV; listed as Homo sapiens) [compound 42]” the Peptide exchange was “+++ (>50 = +++)”. “43 (FLIESKLLSL; listed as Homo sapiens) [compound 43]” was tested, and the Peptide exchange was “++++ (>75% = ++++)”. For “44 (GLAQDPKSLQL; listed as Homo sapiens) [compound 44]”, the Peptide exchange was “+++ (>50 = +++)”. With “45 (IIDSSPTAL; listed as Homo sapiens) [compound 45]” the Peptide exchange was “++ (>20% = ++)”. “47 (VLMDDTDPL; listed as Homo sapiens) [compound 47]” was tested, and the Peptide exchange was “+++ (>50 = +++)”. In the case of “48 (VLMDDTDPLV; listed as Homo sapiens) [compound 48]”, the Peptide exchange is reported as “+++ (>50 = +++)”. For “49 (SLIGGTNFV; listed as Homo sapiens) [compound 49]”, the Peptide exchange was “+++ (>50 = +++)”. In the case of “52 (SLATLEGIQL; listed as Homo sapiens) [compound 52]”, the Peptide exchange is reported as “+++ (>50 = +++)”. For “54 (ALNDEINFL; listed as Homo sapiens) [compound 54]”, the Peptide exchange was “+++ (>50 = +++)”. For “55 (KLLETKWTL; listed as Homo sapiens) [compound 55]”, the Peptide exchange was “++++ (>75% = ++++)”. For “56 (ILLRDLPTL; listed as Homo sapiens) [compound 56]”, the Peptide exchange was “+++ (>50 = +++)”. With “58 (GLDSSVNVQGSVL; listed as Homo sapiens) [compound 58]” the Peptide exchange was “+++ (>50 = +++)”. With “62 (GQLDFSEFL; listed as Homo sapiens) [compound 62]” the Peptide exchange was “+++ (>50 = +++)”. For “63 (LLAGLLVGV; listed as Homo sapiens) [compound 63]”, the Peptide exchange was “+++ (>50 = +++)”. “64 (GLLSQGSPL; listed as Homo sapiens) [compound 64]” was tested, and the Peptide exchange was “+++ (>50 = +++)”. In the case of “65 (IITDLLRSV; listed as Homo sapiens) [compound 65]”, the Peptide exchange is reported as “++++ (>75% = ++++)”. “66 (SLWEENQAL; listed as Homo sapiens) [compound 66]” was tested, and the Peptide exchange was “+++ (>50 = +++)”. For “67 (FLTPPLLSV; listed as Homo sapiens) [compound 67]”, the Peptide exchange was “++++ (>75% = ++++)”. In the case of “68 (TMIVSLAAV; listed as Homo sapiens) [compound 68]”, the Peptide exchange is reported as “+++ (>50 = +++)”. In the case of “69 (QIWDKILSV; listed as Homo sapiens) [compound 69]”, the Peptide exchange is reported as “+++ (>50 = +++)”. With “70 (KLAEISLGV; listed as Homo sapiens) [compound 70]” the Peptide exchange was “++ (>20% = ++)”. For “71 (LLSEDFVSV; listed as Homo sapiens) [compound 71]”, the Peptide exchange was “++ (>20% = ++)”. “72 (SLFTGLRSI; listed as Homo sapiens) [compound 72]” was tested, and the Peptide exchange was “+++ (>50 = +++)”. With “73 (VLKVFLENV; listed as Homo sapiens) [compound 73]” the Peptide exchange was “++++ (>75% = ++++)”. With “74 (LLQEGEVYSA; listed as Homo sapiens) [compound 74]” the Peptide exchange was “+++ (>50 = +++)”. For “76 (AVVSSVNTV; listed as Homo sapiens) [compound 76]”, the Peptide exchange was “+++ (>50 = +++)”. “77 (KVFGGFQVV; listed as Homo sapiens) [compound 77]” was tested, and the Peptide exchange was “++++ (>75% = ++++)”. “78 (FIPDFAVAI; listed as Homo sapiens) [compound 78]” was tested, and the Peptide exchange was “++++ (>75% = ++++)”. “79 (FLDPATPRV; listed as Homo sapiens) [compound 79]” was tested, and the Peptide exchange was “+++ (>50 = +++)”. With “80 (ILLDTPLFLL; listed as Homo sapiens) [compound 80]” the Peptide exchange was “+++ (>50 = +++)”. With “81 (SLDKGTLYI; listed as Homo sapiens) [compound 81]” the Peptide exchange was “+++ (>50 = +++)”. With “82 (NLHNSYYSV; listed as Homo sapiens) [compound 82]” the Peptide exchange was “+++ (>50 = +++)”. For “83 (VILDKYYFL; listed as Homo sapiens) [compound 83]”, the Peptide exchange was “++++ (>75% = ++++)”. With “84 (ALDPASISV; listed as Homo sapiens) [compound 84]” the Peptide exchange was “+++ (>50 = +++)”. In the case of “85 (HLLDSKVPSV; listed as Homo sapiens) [compound 85]”, the Peptide exchange is reported as “+++ (>50 = +++)”. For “86 (FLISLIISV; listed as Homo sapiens) [compound 86]”, the Peptide exchange was “+++ (>50 = +++)”. With “87 (RLLELLQEA; listed as Homo sapiens) [compound 87]” the Peptide exchange was “++++ (>75% = ++++)”. In the case of “88 (ALASLENHV; listed as Homo sapiens) [compound 88]”, the Peptide exchange is reported as “+++ (>50 = +++)”. In the case of “89 (YLFPETEFI; listed as Homo sapiens) [compound 89]”, the Peptide exchange is reported as “+++ (>50 = +++)”. “90 (GMTELYFQL; listed as Homo sapiens) [compound 90]” was tested, and the Peptide exchange was “+++ (>50 = +++)”. “91 (NLDAATYQV; listed as Homo sapiens) [compound 91]” was tested, and the Peptide exchange was “+++ (>50 = +++)”. For “92 (ALLDEQQVNVLL; listed as Homo sapiens) [compound 92]”, the Peptide exchange was “+++ (>50 = +++)”. In the case of “93 (LLDLIQTKV; listed as Homo sapiens) [compound 93]”, the Peptide exchange is reported as “+++ (>50 = +++)”. With “94 (ALADGVPVAL; listed as Homo sapiens) [compound 94]” the Peptide exchange was “+++ (>50 = +++)”. With “95 (YLIGQHVTA; listed as Homo sapiens) [compound 95]” the Peptide exchange was “++++ (>75% = ++++)”. With “96 (KLTNGIWVL; listed as Homo sapiens) [compound 96]” the Peptide exchange was “+++ (>50 = +++)”. For “97 (TVGPGLLGV; listed as Homo sapiens) [compound 97]”, the Peptide exchange was “+++ (>50 = +++)”. In the case of “98 (YLIGLDPENLAL; listed as Homo sapiens) [compound 98]”, the Peptide exchange is reported as “+++ (>50 = +++)”. In the case of “99 (ALIGDDVGL; listed as Homo sapiens) [compound 99]”, the Peptide exchange is reported as “+++ (>50 = +++)”.
